This is an account of results in ChEMBL document CHEMBL4043266, “Pentacyclic triterpenes as α-glucosidase and α-amylase inhibitors: Structure-activity relationships and the synergism with acarbose” (Bioorg Med Chem Lett, 2017).

A word on the Km: it is the substrate concentration at which the rate is half of its maximum.

Details in all cases: Sus scrofa
Compound in data set [1]: C[C@H]1[C@H](C)CC[C@]2(C(=O)O)CC[C@]3(C)C(=CC[C@@H]4[C@@]5(C)C[C@@H](O)[C@H](O)C(C)(C)[C@@H]5CC[C@]43C)[C@H]12
Briefly: Inhibition of porcine pancreatic alpha-amylase assessed as Km for substrate using starch as substrate at 15.6 uM by Michaelis-Menten plot analysis (reference value: 2.48 +/- 0.24 mg/ml).

Compound in data set [2]: C[C@H]1[C@H](C)CC[C@]2(C(=O)O)CC[C@]3(C)C(=CC[C@@H]4[C@@]5(C)C[C@@H](O)[C@H](O)C(C)(C)[C@@H]5CC[C@]43C)[C@H]12
Briefly: Inhibition of porcine pancreatic alpha-amylase assessed as Km for substrate using starch as substrate at 31.2 uM by Michaelis-Menten plot analysis (reference value: 2.48 +/- 0.24 mg/ml).

Compound in data set [3]: C[C@H]1[C@H](C)CC[C@]2(C(=O)O)CC[C@]3(C)C(=CC[C@@H]4[C@@]5(C)C[C@@H](O)[C@H](O)C(C)(C)[C@@H]5CC[C@]43C)[C@H]12
Briefly: Inhibition of porcine pancreatic alpha-amylase assessed as Vmax for substrate using starch as substrate at 15.6 uM by Michaelis-Menten plot analysis (reference value: 28.6 +/- 1.8 microg/ml/min).

Compound in data set [4]: C[C@H]1[C@H](C)CC[C@]2(C(=O)O)CC[C@]3(C)C(=CC[C@@H]4[C@@]5(C)C[C@@H](O)[C@H](O)C(C)(C)[C@@H]5CC[C@]43C)[C@H]12
Briefly: Inhibition of porcine pancreatic alpha-amylase assessed as Vmax for substrate using starch as substrate at 31.2 uM by Michaelis-Menten plot analysis (reference value: 28.6 +/- 1.8 microg/ml/min).

B1: Pancreatic alpha-amylase (Sus scrofa), P00690 (protein)
chain: MKLFLLLSAFGFCWAQYAPQTQSGRTSIVHLFEWRWVDIALECERYLGPKGFGGVQVSPPNENIVVTNPSRPWWERYQPVSYKLCTRSGNENEFRDMVTRCNNVGVRIYVDAVINHMCGSGAAAGTGTTCGSYCNPGNREFPAVPYSAWDFNDGKCKTASGGIESYNDPYQVRDCQLVGLLDLALEKDYVRSMIADYLNKLIDIGVAGFRIDASKHMWPGDIKAVLDKLHNLNTNWFPAGSRPFIFQEVIDLGGEAIQSSEYFGNGRVTEFKYGAKLGTVVRKWSGEKMSYLKNWGEGWGFMPSDRALVFVDNHDNQRGHGAGGASILTFWDARLYKVAVGFMLAHPYGFTRVMSSYRWARNFVNGQDVNDWIGPPNNNGVIKEVTINADTTCGNDWVCEHRWRQIRNMVWFRNVVDGQPFANWWANGSNQVAFGRGNRGFIVFNNDDWQLSSTLQTGLPGGTYCDVISGDKVGNSCTGIKVYVSSDGTAQFSISNSAEDPFIAIHAESKL
B1: the Michaelis-Menten constant (Km) in data set [1] was determined as 2.28 mg/mL; in data set [2], 2.69 mg/mL. In addition, the values for the Vmax in data set [3] and in data set [4] were 21 µg/mL/min and 14.3 µg/mL/min, respectively.
